Reference: patent publication US20180037654A1

Assays:
[1] = biological target: human CTLA-4 (Y166G and Y183G) expressed on CHO-K1.hCTLA-4 cells (human) (UniProt P16410); assay: CELISA, blockade of biotinylated hCD80/Fc binding to CHO-K1.hCTLA-4 cells (Example 6)
[2] = biological target: human CTLA-4 (Y166G and Y183G) expressed on CHO-K1.hCTLA-4 cells (human) (UniProt P16410); assay: CELISA on CHO-K1.hCTLA-4 cells (Example 6)
[3] = biological target: human CTLA-4 (Y166G and Y183G) expressed on CHO-K1.hCTLA-4 cells (human) (UniProt P16410); assay: CELISA, blockade of biotinylated hCD86/Fc binding to CHO-K1.hCTLA-4 cells (Example 6)
[4] = biological target: Mou-Hum-CTLA-4 (mouse/human chimera); assay: CELISA on CHO-K1 cells transiently transfected with Mou-Hum-CTLA-4, panel Mouse/Human
Chain of Mou-Hum-CTLA-4 (mouse/human chimera) (chain, as listed by the source mutant limits assumed): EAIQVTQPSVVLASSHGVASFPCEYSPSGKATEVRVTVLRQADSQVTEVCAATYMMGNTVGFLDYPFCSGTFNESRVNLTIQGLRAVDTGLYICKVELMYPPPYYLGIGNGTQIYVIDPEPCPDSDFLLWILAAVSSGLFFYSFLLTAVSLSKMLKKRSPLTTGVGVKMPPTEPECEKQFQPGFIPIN

rhCTLA-4/Fc/6His (human) = assay: BLI (Octet RED96), antibody amine-coupled to biosensor, rhCTLA-4/Fc 2.5-40 nM, 1:1 global fit
Chain of rhCTLA-4/Fc/6His (human) (chain, as listed by the source limits assumed): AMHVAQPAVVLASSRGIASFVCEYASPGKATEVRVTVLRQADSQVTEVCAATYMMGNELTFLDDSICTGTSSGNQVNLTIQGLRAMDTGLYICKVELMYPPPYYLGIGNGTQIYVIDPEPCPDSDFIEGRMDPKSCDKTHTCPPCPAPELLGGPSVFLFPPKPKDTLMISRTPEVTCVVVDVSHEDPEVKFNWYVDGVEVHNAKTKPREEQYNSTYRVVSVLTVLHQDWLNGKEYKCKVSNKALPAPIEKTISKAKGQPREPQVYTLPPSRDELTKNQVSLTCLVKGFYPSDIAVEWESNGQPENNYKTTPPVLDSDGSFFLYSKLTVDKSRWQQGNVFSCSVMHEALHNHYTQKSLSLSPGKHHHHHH

human CTLA-4 (human) = human CTLA-4 (human) (UniProt P16410); assay: CELISA on CHO-K1 cells transiently transfected with human CTLA-4, panel Human
Chain of human CTLA-4 (human) (P16410 36-223 limits assumed): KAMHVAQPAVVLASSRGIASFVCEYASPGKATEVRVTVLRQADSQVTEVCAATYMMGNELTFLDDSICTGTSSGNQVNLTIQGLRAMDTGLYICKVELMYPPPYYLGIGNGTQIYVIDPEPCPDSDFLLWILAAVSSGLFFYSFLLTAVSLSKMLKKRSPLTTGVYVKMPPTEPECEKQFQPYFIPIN

Chain of CP-675,206 (antibody) (VH): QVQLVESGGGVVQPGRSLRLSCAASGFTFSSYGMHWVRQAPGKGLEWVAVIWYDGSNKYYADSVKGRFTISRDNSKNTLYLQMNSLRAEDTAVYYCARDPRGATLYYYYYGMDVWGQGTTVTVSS
Chain of CP-675,206 (antibody) (VL): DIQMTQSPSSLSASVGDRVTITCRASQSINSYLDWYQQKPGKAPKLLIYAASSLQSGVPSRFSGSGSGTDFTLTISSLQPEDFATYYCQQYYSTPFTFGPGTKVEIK
Chain of human CTLA-4 (Y166G and Y183G) expressed on CHO-K1.hCTLA-4 cells (human) (P16410 36-223 Y201G/Y218G limits assumed): as the sequence (P16410 36-223 limits assumed) above, with Y166G, Y183G counted along it

- IC50 [1]: 1.75 nM
- EC50 [2]: 0.037 nM
- IC50 [3]: 1.69 nM
- EC50 (read off the curve) [4]: 0.04 nM
- Kd (rhCTLA-4/Fc/6His (human)): 3.4 nM
- EC50 (read off the curve) (human CTLA-4 (human)): 0.05 nM
Substance: CP-675,206 (antibody)
